Data set [1] can be described thus: Heparinase III kinetic assay of r-heparinase III and histidine mutants. Type of data set: biochemical. As to conditions: heparan sulfate; for Km: calculated assuming a molecular weight of 15 kDa. The protocol:
The activity of heparinase III was measured using a UV 232 nm assay similar to those reported for heparinase I and heparinase II (Godavarti, R., Cooney, C. L., Langer, R., and Sasisekharan, R. (1996) Biochemistry 35, 6846-52; Shriver, Z., Hu, Y., and Sasisekharan, R. (1998) J. Biol. Chem. 273, 10160-67; and Lohse, D. and Linhardt, R. J. (1992) J. Biol. Chem. 267, 781-87). Briefly, the increase in absorbance at 232 nm as a function of time was monitored under saturating substrate conditions. All assays were performed with heparan sulfate at a concentration of 2 mg/ml in 50 mM sodium phosphate, pH 7.6. The temperature for enzymatic activity measurements was kept constant at 35° C.
In parallel to the mapping studies and to confirm the results of the chemical modification experiments, each of the thirteen histidine residues present in heparinase III was mutated to alanine. The recombinant heparinase III mutant proteins were expressed, purified, and assessed for enzymatic activity towards heparan sulfate (Table 2).

Data set [2] can be described thus: SAX-HPLC analysis of exhaustive heparan sulfate digests. The format is biochemical. As to conditions: for catalytic activity in overnight heparan sulfate digests: SAX-HPLC, overnight 37° C. The protocol: Exhaustive digests of 3 mg/ml heparan sulfate in 50 mM sodium phosphate buffer, pH 7.6 were performed overnight at 37° C. for each of the mutants (20 μg protein). The reactions were loaded onto a Spherisorb S5 SAX column (Waters) and eluted using a linear gradient of 0.2-1.0 M NaCl, pH 3.5. The products were monitored at 232 nm and each of the major peaks was collected. To determine their composition, the collected fractions were analyzed by capillary electrophoresis and identified by comigration with known standards.
As a control, the r-heparinase III construct without its putative signal sequence was expressed. The concentration and purity of all recombinant enzyme preparations were determined using SDS-PAGE. The recombinantly expressed heparinase III was also compared to the heparinase III isolated from F. heparinum to ensure that they were the same molecular weight. Heparinase III (20 μg/mL) was incubated with a 4 mg/mL of heparan sulfate overnight at 37° C. The reaction was loaded onto a SAX column and the saccharide products were eluted using a gradient of 0.2-1.0 M NaCl, pH 3.5 over 30 min. and monitored at 232 nm. (A) Heparan sulfate digested with heparinase III from F. heparinum. (B) Heparan sulfate digested with recombinant heparinase III. (C) Heparan sulfate digested with the H295A mutant enzyme. (D) Heparan sulfate digested with the H510A mutant enzyme. (E) Heparan sulfate digested with the H105A mutant enzyme.

B1: wild-type r-heparinase III: recombinantly expressed heparinase III construct without its putative signal sequence, His-tagged, from E. coli (protein, UniProt Q59289 25-659, looked up)
Heparin-sulfate lyase: QSSSITRKDFDHINLEYSGLEKVNKAVAAGNYDDAAKALLAYYREKSKAREPDFSNAEKPADIRQPIDKVTREMADKALVHQFQPHKGYGYFDYGKDINWQMWPVKDNEVRWQLHRVKWWQAMALVYHATGDEKYAREWVYQYSDWARKNPLGLSQDNDKFVWRPLEVSDRVQSLPPTFSLFVNSPAFTPAFLMEFLNSYHQQADYLSTHYAEQGNHRLFEAQRNLFAGVSFPEFKDSPRWRQTGISVLNTEIKKQVYADGMQFELSPIYHVAAIDIFLKAYGSAKRVNLEKEFPQSYVQTVENMIMALISISLPDYNTPMFGDSWITDKNFRMAQFASWARVFPANQAIKYFATDGKQGKAPNFLSKALSNAGFYTFRSGWDKNATVMVLKASPPGEFHAQPDNGTFELFIKGRNFTPDAGVFVYSGDEAIMKLRNWYRQTRIHSTLTLDNQNMVITKARQNKWETGNNLDVLTYTNPSYPNLDHQRSVLFINKKYFLVIDRAIGEATGNLGVHWQLKEDSNPVFDKTKNRVYTTYRDGNNLMIQSLNADRTSLNEEEGKVSYVYNKELKRPAFVFEKPKKNAGTQNFVSIVYPYDGQKAPEISIRENKGNDFEKGKLNLTLTINGKQQLVLVP
modifications: His tag; no signal sequence
The term kcat denotes the maximal rate divided by the concentration of active sites. Usually Km stands for the concentration of substrate that gives half-maximal velocity. For B1, in data set [1], the kcat was found to be 78 s⁻¹ and the Km is 80 µM. For the same molecule, the “heparan sulfate degradation product profile compared to wild type heparinase III” value in data set [2] (SAX-HPLC and capillary electrophoresis) is “identical product profile”.

B2: H105A: recombinant heparinase III with histidine 105 mutated to alanine (protein)
chain: MTTKIFKRIIVFAVIALSSGNILAQSSSITRKDFDHINLEYSGLEKVNKAVAAGNYDDAAKALLAYYREKSKAREPDFSNAEKPADIRQPIDKVTREMADKALVAQFQPHKGYGYFDYGKDINWQMWPVKDNEVRWQLHRVKWWQAMALVYHATGDEKYAREWVYQYSDWARKNPLGLSQDNDKFVWRPLEVSDRVQSLPPTFSLFVNSPAFTPAFLMEFLNSYHQQADYLSTHYAEQGNHRLFEAQRNLFAGVSFPEFKDSPRWRQTGISVLNTEIKKQVYADGMQFELSPIYHVAAIDIFLKAYGSAKRVNLEKEFPQSYVQTVENMIMALISISLPDYNTPMFGDSWITDKNFRMAQFASWARVFPANQAIKYFATDGKQGKAPNFLSKALSNAGFYTFRSGWDKNATVMVLKASPPGEFHAQPDNGTFELFIKGRNFTPDAGVFVYSGDEAIMKLRNWYRQTRIHSTLTLDNQNMVITKARQNKWETGNNLDVLTYTNPSYPNLDHQRSVLFINKKYFLVIDRAIGEATGNLGVHWQLKEDSNPVFDKTKNRVYTTYRDGNNLMIQSLNADRTSLNEEEGKVSYVYNKELKRPAFVFEKPKKNAGTQNFVSIVYPYDGQKAPEISIRENKGNDFEKGKLNLTLTINGKQQLVLVP
In the case of B2, the “catalytic activity in overnight heparan sulfate digests” value in data set [2] was “retain their catalytic activity”.

B3: H110A: recombinant heparinase III with histidine 110 mutated to alanine (protein)
chain: MTTKIFKRIIVFAVIALSSGNILAQSSSITRKDFDHINLEYSGLEKVNKAVAAGNYDDAAKALLAYYREKSKAREPDFSNAEKPADIRQPIDKVTREMADKALVHQFQPAKGYGYFDYGKDINWQMWPVKDNEVRWQLHRVKWWQAMALVYHATGDEKYAREWVYQYSDWARKNPLGLSQDNDKFVWRPLEVSDRVQSLPPTFSLFVNSPAFTPAFLMEFLNSYHQQADYLSTHYAEQGNHRLFEAQRNLFAGVSFPEFKDSPRWRQTGISVLNTEIKKQVYADGMQFELSPIYHVAAIDIFLKAYGSAKRVNLEKEFPQSYVQTVENMIMALISISLPDYNTPMFGDSWITDKNFRMAQFASWARVFPANQAIKYFATDGKQGKAPNFLSKALSNAGFYTFRSGWDKNATVMVLKASPPGEFHAQPDNGTFELFIKGRNFTPDAGVFVYSGDEAIMKLRNWYRQTRIHSTLTLDNQNMVITKARQNKWETGNNLDVLTYTNPSYPNLDHQRSVLFINKKYFLVIDRAIGEATGNLGVHWQLKEDSNPVFDKTKNRVYTTYRDGNNLMIQSLNADRTSLNEEEGKVSYVYNKELKRPAFVFEKPKKNAGTQNFVSIVYPYDGQKAPEISIRENKGNDFEKGKLNLTLTINGKQQLVLVP
As to B3, in data set [1], the kcat is 37 s⁻¹ and the Km is 9 µM. In addition, the “catalytic activity in overnight heparan sulfate digests” value in data set [2] is given as “retain their catalytic activity”.
